How the values were obtained:
[1] = biological target: tumor-associated glycoprotein-72 (TAG-72), used as TAG-72-positive BSM (bovine submaxillary mucin, type-1-S, Sigma) (bovine); experiment: competitive ELISA, whole IgG in COS7 culture supernatant
[2] = biological target: tumor-associated glycoprotein-72 (TAG-72), used as TAG-72-positive BSM (bovine submaxillary mucin, type-1-S, Sigma) (bovine); experiment: competitive ELISA, whole IgG expressed in animal cells, reference 3E8 whole IgG (FIG. 9)
[3] = biological target: tumor-associated glycoprotein-72 (TAG-72), used as TAG-72-positive BSM (bovine submaxillary mucin, type-1-S, Sigma) (bovine); experiment: competitive ELISA, whole IgG, reference 3E8

- Kd [1]: 0.45 nM
- fold higher antigen binding affinity than the 3E8 antibody [2]: 1.5 fold
- fold higher antigen binding affinity than the 3E8 antibody [3]: 1.5 fold
B1: humanized antibody 3E8/BSM22 (whole IgG form) (antibody, V domains shown)
VH: QVQLVQSGAEVKKPGASVKVSCKASGYTFTDHAIHWVRQAPGQRLEWMGYFSPGNDDFKYSQKFQGRVTITADKSASTAYMELSSLRSEDTAVYYCARSWIMQYWGQGTLVTVSS
VL: DIVMTQSPDSLAVSLGERATIHCKSSQSILYSSNNKNYLAWYQQKPGQPPKLLLYWASTREAGVPDRFSGGGSGTDFTLTISSLQPEDSATYYCQQYNTYPLTFGGGTKVEIK

From patent US20080279847A1
